Square brackets hold non-standard residues; d marks the D form. Ends that are not written are not given here. Met(O) = CS(=O)CC[C@H](N)C(=O)O
molecular target: T1, mouse ADAMTS7 (Mus musculus, UniProt Q68SA9, E373Q); assay: TMT10 TAILS N-terminomics, HUVEC experiment (process replicates, trypsin/AspN digest); assay type: cell-based, human; settings: HUVEC TAILS HC; log fold change of N-terminal peptide, Ad-mADAMTS7 EQ over Luc
T1 construct: Full-length mouse Adamts7 1-1857 (Uniprot Q68SA9, WT or E373Q catalytic mutant); expressed in transfected cells; host or cells: Human Coronary Artery Smooth Muscle Cells (HCA-SMC, Lonza), adenovirus 50 MOI
T1 sequence (Q68SA9 221-1657 E373Q): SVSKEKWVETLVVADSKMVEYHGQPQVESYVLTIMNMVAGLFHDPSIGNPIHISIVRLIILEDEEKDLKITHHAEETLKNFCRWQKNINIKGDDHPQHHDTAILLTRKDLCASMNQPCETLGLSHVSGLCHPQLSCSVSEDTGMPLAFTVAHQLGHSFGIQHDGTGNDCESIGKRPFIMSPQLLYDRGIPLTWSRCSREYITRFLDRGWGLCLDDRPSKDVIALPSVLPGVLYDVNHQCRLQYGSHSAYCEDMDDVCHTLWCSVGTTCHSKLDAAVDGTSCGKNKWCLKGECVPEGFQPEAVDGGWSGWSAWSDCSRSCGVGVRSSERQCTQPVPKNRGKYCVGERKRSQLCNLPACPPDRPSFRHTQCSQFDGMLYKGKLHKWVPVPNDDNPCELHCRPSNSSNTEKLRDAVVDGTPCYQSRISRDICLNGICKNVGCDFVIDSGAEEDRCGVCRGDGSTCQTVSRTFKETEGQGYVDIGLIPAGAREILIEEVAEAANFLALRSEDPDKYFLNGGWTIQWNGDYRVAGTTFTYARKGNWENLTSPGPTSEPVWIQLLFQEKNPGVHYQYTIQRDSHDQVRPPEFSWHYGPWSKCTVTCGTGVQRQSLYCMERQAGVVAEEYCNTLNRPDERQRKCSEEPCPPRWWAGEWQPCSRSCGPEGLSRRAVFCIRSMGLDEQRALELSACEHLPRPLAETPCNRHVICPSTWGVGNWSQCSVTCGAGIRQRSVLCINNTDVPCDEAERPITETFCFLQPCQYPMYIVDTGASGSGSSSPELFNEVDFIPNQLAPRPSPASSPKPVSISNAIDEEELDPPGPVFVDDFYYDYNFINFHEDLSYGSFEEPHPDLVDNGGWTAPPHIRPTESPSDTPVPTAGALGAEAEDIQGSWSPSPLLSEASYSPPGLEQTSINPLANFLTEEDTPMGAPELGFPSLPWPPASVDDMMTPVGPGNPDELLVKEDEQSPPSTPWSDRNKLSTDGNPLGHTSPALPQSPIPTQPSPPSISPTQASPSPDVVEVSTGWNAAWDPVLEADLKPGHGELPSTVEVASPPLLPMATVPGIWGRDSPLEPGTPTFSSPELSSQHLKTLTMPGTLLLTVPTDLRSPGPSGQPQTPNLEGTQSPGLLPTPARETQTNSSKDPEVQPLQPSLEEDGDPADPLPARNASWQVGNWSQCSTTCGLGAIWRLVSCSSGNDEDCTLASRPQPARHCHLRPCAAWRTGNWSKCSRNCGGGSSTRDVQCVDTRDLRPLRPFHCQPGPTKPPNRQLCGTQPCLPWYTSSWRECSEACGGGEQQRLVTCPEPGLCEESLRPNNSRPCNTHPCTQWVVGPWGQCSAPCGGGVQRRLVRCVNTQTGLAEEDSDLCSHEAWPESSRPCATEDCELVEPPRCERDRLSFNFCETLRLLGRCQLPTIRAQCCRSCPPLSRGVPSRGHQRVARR
Procedure, shortened: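 Full-length mouse ADAMTS7 (WT or E373Q mutant, C-terminal 3xFLAG) or luciferase was transduced via adenovirus, 50 MOI, into HCA-SMC (SMC1, SMC2) or HUVEC. SMC1: pooled media, technical triplicates 400 ug; SMC2: process triplicates 300 ug; HUVEC: process triplicates 200 ug, bFGF2 10 ng/ml.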

| Substance | logFC.mEQ.over.Luc |
| --- | --- |
| PSAP_301 (LVEPIKKH; listed as Homo sapiens) | −0.06 |
| LTBP3_205 (HAAFLVPLGPGQISA; listed as Homo sapiens) | −0.13 |
| LTBP3_221 (VQAPPPVVNVR; listed as Homo sapiens) | −0.39 |
| ZYX_244 (PVSLANTQPR; listed as Homo sapiens) | 0.18 |
| LTBP2_129 (QQQPAPR; listed as Homo sapiens) | −0.49 |
| MCFD2_55 (HLEGVINKPEA; listed as Homo sapiens) | 0.14 |
| UQCRH_76 (HGSPNNSERAMRAVGE[Met(O)]CKGPGAAR; listed as Homo sapiens) | 0.01 |
| CLU_267 (FQHPPTEFIR; listed as Homo sapiens) | −0.08 |
| BICD1_280 (NNDDKMNGHIHGPLVKLNGDYR; listed as Homo sapiens) | −0.08 |
| ASMT_321 (LSSAGFR; listed as Homo sapiens) | −0.39 |
| FN1_1624 (LVQTAVTTIPAPT; listed as Homo sapiens) | −0.16 |
| LTBP3_164 (LSTGALPPLAPEG; listed as Homo sapiens) | −0.39 |
| CTGF_173 (TVVGPALAAYR; listed as Homo sapiens) | −0.45 |
| PTBP1_376 (AAAAAGR; listed as Homo sapiens) | 0.06 |
| LTBP2_253 (GEGTLAR; listed as Homo sapiens) | −0.09 |
| PZP_578 (HAHLQVAAAPQSLCALR; listed as Homo sapiens) | −0.34 |
| FN1_1743 (WESPQGQVSR; listed as Homo sapiens) | −0.19 |
| CTGF_174 (VVGPALAAYR; listed as Homo sapiens) | −0.31 |
| THBS1_630 (FGQGVEHATANK; listed as Homo sapiens) | −0.01 |
